assay: protease stability score; higher = more stable; yeast display proteolysis, trypsin and chymotrypsin;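 also: log10 excess protease needed over predicted unfolded state with 0 meaning unfolded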

Sequence	protease stability score
DEEELTTLAEQLMDIIEQGDKKRFHQLADPNARMDVGDKRYHGREEMAKNLYDLVERVDTISVDSLSARNGRIKIDMRFKVNGQDVKQILVVRADNGTITRVSIETS	0.849
DEEEMDRFIKHLERNDEDRWVQMADPNVKVRIGDNTLRGREQLKKWFHRFRKRVDTYSIDSYTVHGEKIKVRAKFQVDGRNVQFSFVVVIKNGRIKSATYEARNEEDQEQDKRDLE	1.5
DEEEMEKVLQVQSTGNPDRYRKLADKDVRLVVGDTEVQGKEKVVKKVHDFHKQIDHQDYESMSAEGNRIDVLLRNVVNGQELVLRVVVRVHNGRIKEVELRARSEEEQSRFDHAWK	0.093
DEEEMKEMLEKWHEAVQKGDSDKVKKLYKPNVEWEDSDTQKQGVEVVIKMLQEVQKKGLEFQVRKAKVEGDTAQAVYDLRFGDKTVTFTVELQAQGGRVDKVRVELNEEAKKVLTKG	1.19
DEEENKDVATTFVKAVEQGDPDKISHLFDENARAQIGDKEYHGREDLMRMAQEWRDRYDHIEIQDYKVHGNKVTAHFVMQHNGKRERRVMTAEWRNGQIHSMQVHSS	1.37
DEEENKHLISLFERNNWRDMAEMADKDVKAQYGDSTIHGREQVHEVLTQLQKRADHLEIKDYNVDGNKVVVDQVINVNGVTIRAKVLMEVHNGRIKQMHVQATDNEEKKKLDKVLS	-0.466
DEEENNKIARRAAKAFSTGDPDEFHKLVDPNARVRIGEKEVHGREDVHRMVQELRERADHIQVTSFTFQGNKITLDLSLDVNGHTVKLNVEITIHNGHVVDINIDPEQVKSLHG	0.647
DEEENQELAEKFVRAIQEGDPDQITDLLDENAKATVGDRTYHGRSQIADYIHEMLKKADHFEVQSVDVQGNHIVIHVQMDINGKQVHMIIKMELSNGKVKHLEIEHK	1.75
DEEENTKVMERFLDAVKRGNEDDLHELADKDVRLTVGDKEYHGREEIMEYLHEWRKKVDHIDFDSYTVRGNTVEVHFQVHDNGQNEDVVVQVEVHNGRVKTVRYRHK	1.72
DEEEQDKVRKNIHHNNFDHLVQMADPNAHVKIGDKRIHGREELRKYQEKLKKQADHFSIDDMKVEGNKFKVKNNFKVNGQSFEHDYEATVQNGRLKSATVDARDEEDKKKLNEQMS	0.451
DEEEQEKQAHDFARVFNTGDEEKFKRLMPPDARFRYGDKEYHGMDDLLRMLLEMHKRADHLTLVDVDAHGNHLTIRIKVTVNGSDVTVDITITVDNGRLKSVVVDPRQWQKLRN	0.066
DEEEQERAMEKLDHAIEKGDPDDAVELLDENADAVIGDKRYHGREAATTFMHELRKQIDHIHIRDMQIDNGRAHIEVDARHNGQERKINVVFVFHNGRATSMENRSE	1.02
DEEEQHKRAREYMQMFEDNDEKNLMHMADENARLVVGDKTYRGKEELSKQVREQKKRVDHNQVHSVRLHNGRVVIDVTLHHNGHREKRIIRVQLRNGRIKSIVYESG	0.037
DEEEQHKTATKILSDFHTGNPDDMRENADEDVTAQVGDKTYTGREEFHKAVKTIVDRVDHLEIKSFDFHNGQLEANFVININGKNEKKKLVMRVENGRVKHMKIDDG	-0.221
DEEEQHKVAKKLNEAFQQGDPDRLKQLVDKDARAEVGDTTYHGSQDIREAMQHIKDRVDKIEVKSFSVRNGKVTLSINMEVNGRKVILTVEARVDNGHVEYMRIKYTNEEDREVMDQ	0.95
DEEEQKKRAKKQADAMRQGDTDELVKMLRDDVRVKVGDKEVHGREDLKKWAREIKKEVDHIQIRQVQVHNGRIDFHIVVNHNGKNKEVVLVVRVRNGQATDFKLTRK	0.051
DEEEQKNRAKNAADAFQTGDPDQMVEMVDKDVRVQVGDKRYHGREVARTVLDEMQQHIDHIHVKNYNVSGNTVEIRIKANINGRDVEINIHIEMHNGRVKEVKFNPKVADAAKR	0.25
DEEEQKVFEKVQDAIRDGDEDTVKKLMDENAKVTIGDKDLHGSDNIARHVHKLHKDMRISIDIKHIDVTGDKIRVHARVEVDKNGKPKHYDVDFTARAKNGKVKTLNYREDS	0.694
DEEEQMHQANQNLRDAFRTNDPDTWRTLVDENARVRIGDKHVSGREEVKELMEDIAREADHLELRVQSMTVRNGELHVHFTLRADVNGQKREIQVVVVLVVRNGRARISRVEQT	1.15
DEEEQNKIAETAAKAVASGDEKRLVDLADKHVKVHYGDKDLRGKEAADTLAHDLKRQVDNIKVDTVHAHNGRANADVEVRVNGKKVRYQVQVVVTNGTIDRVQLDPDMVRDHES	0.101
DEEEQQDHAHTLKDALTYGNEQEFRHMADENARINYGEFDYHGREQFQDVIRRIMEQADHVRVDHVQVHGEHVDIRLKVKFNGQTQRWVIIVRFHNGRIKHLSADTQ	0.499
DEEEQQKNAETADRNVKTGNWEEIKKMVDKDARVKIGDTTLHGREDVSREFKRWREDADHVEMKRVSASNGRAVVEVEYTVNGRKKKFTMIMEMHNGRIKHFRNERS	0.251
DEEEQQKVADKIVEVLKSGNPDEMMKLADENVRAQVGDKTYHGREELKKWMKEVRDRVDRIRVETWEVHNGTVNIIVRMDVDGQTLTLTITANIHNGRIKQIVIEYRDDDELRKAQK	0.729
DEEEQRKAAHQYRKGDPDEAHHMFDENATVEIGNFHVQGREQVREAFEHMKRRADHREVDDMKIQGDKVQVDFQIVVNGQRVKATLDAKVKNGRAQSVRVEFRDEEDRTRAERWFK	0.042
DEEEQRKTAEDIAQVLRTNNPDTMNKLADKNAKASVGDKTYHGRKELSKWIEEQRRRVDHVDIKRFSVDGNEIIIIVILNHNGQNTRVVMVARVKNGRIQSLWRKSK	-0.176
DEEERAKNFMKQLIDVAQRGDKENAKRLFDENARVEVGDKTYRGRRRVATFLMELSERADHMEMRIQSFDISGDKFDLVLKVERHHNGRQQSFQLKVVATVRNGNLVIVHVRMG	2.49

Sequence	protease stability score
DEEERLRTILKLFEEALKHNDEDRLRKLADKDVRMRVGDKEYRGKEKFADFMRKLRTKADKVRIQIKQVNIQGNHNTMDITLVFNVNGNNNRFKVNFVFDIRGDSLKLKSATVK	1.32
DEEERRKAHELVKHNDWDKLMKNAPPDVTARIGDRTVHGMEEQVRIEHNMLRRVDENQLHSVDNSGNQLVVTLHVQINGRRFKFTVKIVIHNGQVTTVKVQARDEKEKRKLTELMG	0.566
DEEERRRLAKRVIDAMNTGDPDQVVEQIDPNARVEIGDKVYHGRDKAKKAAEERKRQADHVKLKSLEVHGNKVHARLIFNRNGENRTVLLRIKVSNGKALEIRFDHQ	0.552
DEEERSKLAERLVKAVQNNDEDSLLDNIDKNARVVVGEKTYHGRENARHAMQQFDEDVDHLQVRTFEVHGEHIRIQFEVNINGHTHTVVLDAEVKNGKLTDVKFDPDDMRKATS	0.14
DEEESDRLKELFRVMRTGDHKRAENMLDPNARFKVGDKKFEGRHEWQKDIKKTKEESHADIKIKDVHFDNGRVDVTLEMVVLHNGRPKKFRVKFVATIQGEKVKEAHITESQ	-0.094
DEEEVEEMVDQALTAIRTGDEDTFAHQFDENARMEVGDTTLHGRDEIRKEMKKFRDRADHIRIQDYKVKGNKIVIVFVARFDGRHAQITIVWVFSNGRVKHASINPNQVQEFRK	0.279
DEEEVERIAKKLWKIMETGDEDEARKMVPPDVQARVGDKHISGREQYAKWVREVVKRVDSFRIKSLDAKGDKVNIVFVVHHNGKVEQHHATLVFHNGKLVYRTVKTG	0.433
DEEEVERVAKTAMEAMKKGNEEELKKLLKEGVEYIMGDNKVHGPEEIQKMVQLVLRVGMRIEFKELRVEGDTATTNVDYQVGDKKVTVQAHAELKGGRIDRVQIDFSDEAKKHVKHG	1.17
DEEEVKDLDRRLQEAMKTNDPDQMQRLVDENVTASYGDKEVTGREEFKKNNRELLKRVDHVNIHDVTVSGEEMVLDASVKHDGREHRIRVRAVVRDGRIKSLKIHDG	0.494
DEEEVKKFKEFLDDEKKGNEERAKKLADPNVNVRVGNRQVDGSDNLQKEIRTQKEQARFDMKVDHVEAHNGRIHLEFKLTVEVDGRPKSDTATADAVVTNGHITSLTVQMSEDQVREMDK	-0.238
DEEEVKKQLEKLVKMLVKGNKDEIKKFLDPDVEYKVVDEDFQGQQVAEHAYKKIKKVGARMEVKEVRVEGDTAKATYEFTAGGTTVRAEIEAEVHGGRVKHWQVDLDDTAKELIKKG	0.266
DEEEVKQAIDRWEQGDPDQLKELVDENAHMVIGDKRLHGRETFEKMIKNLMDQADHITIESVEVQGDKAVMDVVANFNGKTVRYEVEIRIQNGQIKYLQINVTNEHDEHRFDQWLG	1.16
DEEEVKRQLDQVAKALLHGDEKQAKDLADPNVSANYGDKKLHGRENFSKWVKKFRHQIDHLELKDIRVNGDRLVIEVQANVNGQDVDVVFNLKLHNGKVKHMSVEYRDEQAKRELKK	0.49
DEEEVNKALERIRQVLEDGNPDENMKLMDKDVRVEIGDKTWHGRDEAHKAMRELNENVDHFQFDRLHHEGDRAKIDVHLEDNGKKDRVTFEFKIENGRIQHARVQTS	-0.335
DEEEVQKILKTMNELLKHNDFDSLARQADPNAEFHVGDKRVHGREQVQTMLQDLRERIDHVEIRSMTAQGDKFKLDFLENVNGRRTRVTAHADVHNGRIKSVEYRTS	-0.619
DEEEVRELAERFAENLERGDFHKVANQADPNARMQIGDTRYHGREELQRFLKELMERVDHLQIRSVKVRGNHVTIRMHVHYNGKSVDMHMTFHAKNGKIKHVEFNPKDFDKARR	0.813
DEEEVRKVLERLQKAVEKGNADEIAKLLKDDGEFVLIDERYKGQEDAKQVIKELQDKGFEFHTEEIQVKGGTAEVKTVWRVGDRELHLKVRYVVRGDKVDQVHAQWSKDAKEDLKKG	0.691
DEEEVRRIAHEFLKAVERGDEKRVRQLADKDVRAVVGDKRIHGKKDLAKLVKTLRDRADQFKVRDLEVQGNHVEVDLVMIVNGQSVDMSINIVVHNGTIHHMEIRVTDEDRMREVNS	-0.053
DEEEVSRILKKVLTAVRKNDPDTLMRLADKNARFHYGDRTYRGREQARRWMEDVRTHADHARINSFTVTGNKARADIRFDINGEERRVDMVIVVHNGKIHDLVVEDR	1.3
DEEEVTKVVKKLRENDRDSQRDLFDKDVRVKIGDKNVHGREQAVTFWDRFLNSVDRYHVDSVEIDGDQIKIDARAVVNGRKVRYVVVYTVRNGRIKEASVHFTNEDEEKEFEKNVG	1.28
DEEEWKELNKEISRIDQHGDERDLARLVDENAKIQIGDKTIRGREDLEKQFDRLRDRFDHIQVQHVENQGDKIRVEVVQRHNGRDETHVKTVKLENGRIKHMEMQHK	-0.186
DEEFAKTVVQMFRNWVHGDPSDMTRMLDENAHVVIGDTTLRGRDDVSRYVNELHDHMRFHVDRLSEENRPGRAVVKAQNNNVHNGEPTTNRAVVEVNVKNGKAQDIQYNSDK	-0.36
DEEFEQNAKEWLTAIKENDPDQVRDLVDEDVRFNVGNKKVHGRERWKHLVETENKELRVEYESIDVKVNGDKAEFNATVTVEVNGKPAHFHVNMKMQAHNGRIKHVSQNMSHEDQEKFRK	-0.118
DEEFLKRLVKILRTGDPDKLVNNFDKNARLEYGDKTVEGKNRIKKFMKDLHDRVDHFDIESVTLEPNHLDFTMKAQINGRDVKVRVRVEVHNGKIKHATYKYTNEDQERNMKHVKS	0.561
DEEFLRLIEEFWRAVKQNDEERLKHLLDENAKVKVGDKRLRGHEQVAKSIVDDQREMRIEMRIHKVEVDGNKVDVTYVVVFNVNGRPVSDSVRVIFRAKNGRIQMIEVRVDPDSAREQKS	1.37

From the NTF2 design screens of Basanta et al. (2020)
